B1: 130994: Poppy cDNA clone; auxin tolerance hit sequence (nucleic acid)
DNA: GAATTCAATCAAATGGCTACTGCTAGAGTTTTAGCTGCTAGTATGTTGCATGAATGCAACAACACTCACAGTGCTTCATTTCTTTTGAGACAATCTTCTTTCATCTTACCTATTAAACATCAAAGTATTAATTTCAGTAGAAGAGCATCTTCTAGGAGAGCTTTTACTTGCAAATCTCTTTACAAACCTGAAATTCAAATCAAACAAGAAGGTGAACCTCAAACCCTAGATTACAGAGTCTTCTTTCATGATAAATCTGGCAAAAAGCTTTCACCTTGGCATGATGTACCATTGCAATTGGGTGATGGAGTGTTCAATTTTATCGTGGAAATACCAAAAGAGACAAGTGCAAAGATGGAAGTTGCAACTGATGAGCCATATACTCCCATTAAACAGGACACCAAGAAGGGAAAACTTAGATTCTACCCCTACAACATCAATTGGAACTATGGATTGCTCCCACAGACATGGGAAGACCCAACAGTAGCTAATTCTGAAGTTGAAGGGGCATTCGGAGATAATGATCCAGTTGATGTTGTTGAAATTGGGGAGAGGCAAGGAAAAATTGGCGAGATTCTTAAAGTCAAGCCTTTAGGTGCTTTGGCTATGATTGACGAAGGAGAACTCGACTGGAAAATTGTTGCGATTTCGTTGGATGACCCAAAAGCTTCACTCGTCAATGATGTTGGTGATGTTGAGAAACATTTCCCGGGCACTCTCACTGCTATAAGAGATTGGTTCAGAGACTACAAGATCCCAGATGGAAAGCCTGCCAATAAGTTTGGACTTGGGAACAAAGCAGCCAACAAGGATTATGCTCTGAAGGTAATAACTGAAACCAACGAAGCTTGGGCTAAACTTGTCAAGAGAACTGTTCCTGCTGGGGAGCTCTCCCTTCTGTAAATTTTGAATTTTTAAAAGTTGAAGATAAGAGGCACTTTGGCCCGCTCCTATCCCCCTCCTCTCTCTATTGTTTTCTTTCATGCTGGATTCCAAACAAACTTCCTCCAATTTTTTGGACGAAGTATTGATAATTTCTAATCATTGAGCTCCATTTTTCAAAAAAAAAAAA
modifications: Poppy
B2: 129870: Poppy cDNA clone; auxin tolerance hit sequence (nucleic acid)
DNA: TTAATTAAGTCGACGAATTCAAATTAGGTCTAAAGATGGCGTCTTTAGCTCAACAATTCTCAGGATTAAGATGCCCACCACTTTCTTCTTCTCATCTAACAAAACCCTTTTCTTCAAAACCCCAGAAAACCACCTTTTCACCTATAGTTTCAGCAGCTGTCATTTCTAATGCACAAACTAAAGAAAGAAGTAGACTTAAAGAAATCTTCGAAGATGCTTATGAAAGATGTAGAACTACTCCAATGCAAGGTGTTGGTTTTACTGTTGATGATTTTCATGCTGCTCTTGAAAAGTATGATTACAATTCTGAGATTGGTACCAGGGTTAAAGGAACTGTGTTCTGTACAGACAACAACGGAGCATTAGTTGACATCACGGCGAAATCTTCAGCCTATTTACCAATCCAAGAGGCATGTATTCACAAAATAAAGCATGTAGAAGAAGCAGGAATAGTTGCAGGCCTACGTGAAGAGTTTGTGATTATTGGAGAGAACCAAGCTGATGATAGCTTGATCTTGAGTTTGCGTTCAATCCAATTTGACCTCGCATGGGAACGGTGTAGACAACTTCAGGCAGAGGATGTCGTCCTCAAGGGTAAGGTTGTTGGTGGAAACAAAGGCGGTGTGGTGGCAATTGTCGAAGGCCTTCGTGGTTTTATTCCATTCTCACAAATATCTTCAAAATCAACCGCGGAAGATCTCATTGATAAGGAGCTTCCTCTGAAATTTGTGGAAGTTGATGAGGAGCAGTCTAGACTTGTCCTCAGTAATCGCAAGGCCATGGCAGACAGCCAGGCACAGCTTGGTATTGGATCAGTTGTCACTGGAACAGTACAGAGTCTTAAGCCATATGGCGCTTTCATCGACATTGGTGGAATCAATGGTCTTCTTCATGTTAGTCAAATTAGTCATGATCGTGTCTCGGATATTGCAACAGTTCTTCAACCCGGCGACACTCTAAAGGTGATGATATTGAGCCACGACCGTGAGAGAGGCCGAGTCAGTCTATCCACCAAAAAGCTAGAGCCTACTCCAGGAGATATGATCCGTAACCCCAAGCTTGTTTTCGAGAAGGCTGAAGAAATGGCTCAGACATTCAGGCAGAGAATAGCTCAAGCAGAAGCTATGGCCCGTGCGGACATGCTGAGATTCCAACCCGAGAGTGGATTGACTCTAAGCTCAGACGGCATCTTAGGTCCCCTGACGCCAGACTTGCCTGCTGAAGGTCTAGATTTGAGCGACATTCCTGCAGCTGATGATGCATAGAAACCAATAAATATGAATTAAATCTGTCTTGACGTTTCTTCTCATCACCATTTTTAGGCTATGTAAGATGGGTCTATAGGTTGTTCAAAGTGTTGACTTGTGTATTTATCTTGATAGTTCAAAGTGTACTTCTTTAAGCGATAATCATTGAAAAGAAAAAATGGAGAAGGTAAAAGATAAAAATATCCAAAAAAAAAAAAAAAAAAAAAAAA
modifications: Poppy

Key:
Nicotiana benthamiana [1] = assay: Evaluation of auxin tolerance in greenhouse plants inoculated with clone transcript and sprayed with herbicide; format: in vivo; conditions: greenhouse; 30% or more of test population tolerant by 14 dat
Protocol: All primary hit sequences were evaluated for tolerance in larger plants, maintained under greenhouse conditions as described below.
Plant Growth and Maintenance. Nb seeds were sown in 6.5 cm pots filled with Redi-earth medium (The Scotts Company, Marysville, Ohio) pre-wetted by injection of Hoagland's fertilizer solution [all from the Scotts Company: 147 kg Peters Excel 15-15-15 Cal-Mag, 68 kg Peters Excel 15-0-0 Cal-Lite (15% Ca), and 45 kg Peters Excel 10-0-0 MagNitrate (10% Mg) in hot tap water to 596 L total volume] into irrigation water at a ratio of 200:1, using an injection system (H. E. Anderson, Muskogee Okla,). Seededpots were placed in the greenhouse for 1 day, transferred to a 27° C. germination chamber (Carolina Greenhouses, Kinston, N.C.) for 2 days, and then returned to the greenhouse. Shade curtains (33% transmittance) were used in the greenhouse to reduce solar intensity. To ensure 16 hour day length and supplement solar radiation on overcast days, artificial lighting consisting of a 1:1 mixture of metal halide and high pressure Sylvania sodium lamps was used, delivering approximately 220 μmol/m^2/s. Evaporative cooling and steam heat were used to maintain a daytime set point of 27° C. and a nighttime temperature of 22° C. At approximately 7 days post sowing (dps), seedlings were thinned to one seedling per pot and at 17 to 21 dps, the pots were spaced farther apart to accommodate plant growth. Plants were watered with Hoagland's solution as required. Following inoculation, waste irrigation water was collected and treated with 0.5% sodium hypochlorite for 10 minutes to neutralize any viral contamination before discharging into the municipal sewer.
Plant Inoculation. For each clone, 50 test plants as well as 10 GFP and bar (Thompson et al., EMBO J. 6:2519 [19870]) negative control plants were inoculated as follows: 2.0 mL of inoculum per clone were prepared by combining equal volumes of NCAP transcript and FES buffer [0.1 M glycine, 0.06 M K2HPO4, 1% sodium pyrophosphate, 1% diatomaceous earth (Sigma Chemical Company, St. Louis, Mo.), and either 1% silicon carbide (Aldrich Chemical Company, Milwaukee, Wis.), or 1% Bentonite (Sigma Chemical Company, St. Louis, Mo.)]. The inoculum was applied to each plant at 17 days post sowing by pipetting onto the upper surface of leaves 3 and 4 (˜20 μL per leaf). The inoculum was then spread across each leaf surface using a 3″ cotton tipped applicator (Calapro Swab, Fisher Scientific, Pittsburgh, Pa.) and a gloved finger to support the leaf. Following inoculation the plants were misted with deionized water.
Infection Scoring. At 8 days post inoculation (dpi), the plants were visually examined and a numerical score was assigned to each plant to indicate the extent of viral infection symptoms: 0=no infection, 1=possible infection, 2=infection symptoms limited to leaves <50-75% fully expanded, 3=typical systemic infection, 4=atypically severe infection, often accompanied by moderate to severe wilting and/or necrosis. Plants receiving an infection rating of 0, 1, or 4 were discarded.
Herbicide spraying. At 9 dpi, the well infected plants (infection score of 3, sometimes 2) were divided into 3 treatment groups. Group 1, to be sprayed with solvent only, contained 4 plants per test clone (2 plants per negative control) and Groups 2 and 3, to be treated with 13 or 40 g ae/ha, respectively, each consisted of 12 test plants per clone and 2 plants per negative control. […]

Nicotiana benthamiana [2] = assay: Cross-resistance testing against six auxin compounds (greenhouse); format: in vivo; conditions: for tolerance to picloram (Compound #5): 10 g ae/ha and 1/2x; for tolerance to positive control 4-amino-3,6-dichloropyridine-2-carboxylic acid (Compound #6): 10 g ae/ha and 1/2x (5 g ae/ha); for tolerance to dicamba (Compound #3): 64 g ae/ha and 1/2x; for tolerance to quinclorac (Compound #1): 200 g ae/ha and 1/2x; for extent of cross-resistance to the six auxin compounds: two trials, two doses per auxin, thresholds 25% or 35% injury or less
Text: Six compounds, representing five classes of auxin chemistry, were selected for testing the extent of auxinic tolerance of five hit sequences (129965 (SEQ ID NO:10), 130213 (SEQ ID NO: 14), 130294 (SEQ ID NO:360), 130994 (SEQ ID NO:361), and 129870 (SEQ ID NO:359)). The compounds included the following: • 1) quinclorac (BASF Corp., Research Triangle, N.C.) • 2) (2,4-dichlorophenoxy) acetic acid (Dow AgroSciences, Indianapolis, Ind.) • 3) dicamba (Monsanto, St. Louis, Mo.) • 4) benazolin (AgrEvo USA Company, Wilmington, Del.) • 5) picloram (Dow AgroSciences, Indianapolis, Ind.) • 6) 4-amino-3,6-dichloropyridine-2-carboxylic acid (Dow AgroSciences, Indianapolis, Ind.) Compound #6 served as a positive control, as these five sequences were identified for their herbicide tolerant function using this auxin (see Example 9). Compound #1 represents the quinoline carboxylic acid chemical family, #2 is in the phenoxy carboxylic acid class, #3 is benzoic acid chemistry, #4 is unique to any currently defined class, and #5 is in the same family as the positive control, pyridine carboxylic acids.
The protocol was essentially the same as that described in Example 9 for greenhouse evaluations. However, an individual experiment consisted of 200 test plants plus 35 GFP and 35 bar negative control plants inoculated per clone. […] Two doses per auxin were tested, with as many as 12 well-infected test plants and 2 of each of the negative controls per dose.
The six auxin solutions were prepared by dissolving solid compound in General Purpose Solvent (GPS: 97%DMSO: 3% acetone) to achieve the following spray rates (g ae/ha) when using the spray applicator and parameters outlined in Example 9: Compound #1) 200; 2) 42; 3) 64; 4) 200; 5) 10; 6) 10. From each of these solutions, a portion was diluted with an equal volume of GPS, resulting in 1× (“high dose”) and ½× (“low dose”) concentrations for spraying. Before spray application, each auxin solution was mixed with an equal volume of diluent containing surfactants for effective penetration. The diluent was prepared as follows: 420 mL GPS, 460 mL DI water, 120 mL isopropyl alcohol, 10.167 mL Agri-Dex (Helena Chemical Co., Memphis, Tenn.), and 0.167 mL Triton X-155 (Sigma Chemical Co., St. Louis, Mo.). In addition to the 200 and 100 g ae/ha rates tested for Compound #4 (benazolin), a concentration of 250 g ae/ha was also formulated as described above and tested.
Plants were sprayed and evaluated as described in Example 9. FIG. 7 summarizes the sequences tested and the highest dose of the compounds against which tolerance was observed. […] Results are reported in FIG. 7 for each of the trials with each construct.
The positive control (Compound #6) was formulated differently in this set of evaluations from that described in Example 9, for consistency in the solvent/surfactant background from which to compare the activity of the individual sequences against each auxin. Thus, the spray rate used for evaluation was lower than previous experiments, 5 vs. 13 g ae/ha. The need to lower the dose with this formulation to prevent total chlorosis and/or necrosis was likely due to the addition of DMSO, Agri-Dex, and Triton X-155 which were not used in Example 9.

| Molecule | reproducibility of auxin tolerance from Trial #1 to Trial #2 (Nicotiana benthamiana [1]) | tolerance to picloram (Compound #5) (Nicotiana benthamiana [2]) | tolerance to positive control 4-amino-3,6-dichloropyridine-2-carboxylic acid (Compound #6) (Nicotiana benthamiana [2]) | tolerance to dicamba (Compound #3) (Nicotiana benthamiana [2]) | tolerance to quinclorac (Compound #1) (Nicotiana benthamiana [2]) | extent of cross-resistance to the six auxin compounds (Nicotiana benthamiana [2]) |
| --- | --- | --- | --- | --- | --- | --- |
| B1 | reproducible auxin tolerance | demonstrated tolerance to each of the three compounds using the 35% injury threshold | tolerance consistently occurred at the lower threshold (25% injury or less) | demonstrated tolerance to each of the three compounds using the 35% injury threshold | demonstrated tolerance to each of the three compounds using the 35% injury threshold | tolerance was observed against four compounds |
| B2 | reproducible auxin tolerance | demonstrated tolerance to each of the three compounds using the 35% injury threshold | tolerance consistently occurred at the lower threshold (25% injury or less) | demonstrated tolerance to each of the three compounds using the 35% injury threshold | demonstrated tolerance to each of the three compounds using the 35% injury threshold | tolerance was observed against four compounds |
